Source: US7183387 (Genentech, dated 2007)

B1: E27 IgG1 variant T256(269)N (antibody)
heavy: not shown
light: DIQLTQSPSSLSASVGDRVTITCRASKPVDGEGDSYLNWYQQKPGKAPKLLIYAASYLESGVPSRFSGSGSGTDFTLTISSLQPEDFATYYCQQSHEDPYTFGQGTKVEIKRTVAAPSVFIFPPSDEQLKSGTASVVCLLNNFYPREAKVQWKVDNALQSGNSQESVTEQDSKDSTYSLSSTLTLSKADYEKHKVYACEVTHQGLSSPVTKSFNRGEC
B2: E27 IgG1 variant S324(343)N (antibody)
heavy: not shown
light: B1 light
notes: also called IG2 213
B3: E27 IgG1 variant T335(354)E (antibody)
heavy: not shown
light: B1 light
notes: also called IG2 194
B4: E27 IgG1 variant V303(322)T (antibody)
heavy: not shown
light: B1 light
B5: E27 IgG1 variant T256(269)G (antibody)
heavy: not shown
light: B1 light
notes: also called IG2 176
B6: E27 IgG1 variant V303(322)L (antibody)
heavy: not shown
light: B1 light
notes: also called IG2 150
B7: E27 IgG1 variant T335(354)K (antibody)
heavy: not shown
light: B1 light
notes: also called IG2 195
B8: E27 IgG1 variant S324(343)K (antibody)
heavy: not shown
light: B1 light
notes: also called IG2 215
B9: E27 IgG1 variant Y296(313)W (antibody)
heavy: not shown
light: B1 light
notes: also called IG2 186
B10: E27 IgG1 variant S324(343)Q (antibody)
heavy: not shown
light: B1 light
notes: also called IG2 214
B11: E27 IgG1 variant Y296(313)H (antibody)
heavy: not shown
light: B1 light
B12: E27 IgG1 variant S324(343)E (antibody)
heavy: not shown
light: B1 light
notes: also called IG2 216
B13: E27 IgG1 variant T335(354)Q (antibody)
heavy: not shown
light: B1 light
notes: also called IG2 171
B14: anti-IgE E27 IgG1 Ala327Gln (antibody)
heavy: not shown
light: B1 light
B15: anti-IgE E27 IgG1 Ala378Gln (antibody)
heavy: not shown
light: B1 light
B16: anti-IgE E27 IgG1 Asn297Ala (antibody)
heavy: not shown
light: B1 light
notes: removes the Asn-linked glycosylation site
B17: anti-IgE E27 IgG1 Asn276Ala (antibody)
heavy: not shown
light: B1 light
B18: anti-IgE E27 IgG1 Ala339Thr (antibody)
heavy: not shown
light: B1 light
B19: anti-IgE E27 IgG1 Asn286Ala (antibody)
heavy: not shown
light: B1 light
B20: anti-IgE E27 IgG1 Arg292Ala (antibody)
heavy: not shown
light: B1 light
notes: also called R292(309)A
B21: anti-IgE E27 IgG1 Asp265Ala (antibody)
heavy: not shown
light: B1 light
notes: also called G14 D265A
B22: anti-IgE E27 IgG1 Arg255Ala (antibody)
heavy: not shown
light: B1 light
B23: anti-IgE E27 IgG1 Ala327Ser (antibody)
heavy: not shown
light: B1 light
B24: anti-IgE E27 IgG1 Asn315Ala (antibody)
heavy: not shown
light: B1 light
B25: anti-IgE E27 IgG1 Arg301Ala (antibody)
heavy: not shown
light: B1 light
B26: anti-IgE E27 IgG1 Ala327Gly (antibody)
heavy: not shown
light: B1 light

biological target: T1, human FcγRIIA-R131 α subunit extracellular domain-6His-GST fusion (human, UniProt P12318 34-217); test: ELISA, IgG:IgE hexamers on receptor-GST
T1 construct: also called FcγRIIA-Arg131; not shown: glutathione S-transferase (GST)
T1 sequence: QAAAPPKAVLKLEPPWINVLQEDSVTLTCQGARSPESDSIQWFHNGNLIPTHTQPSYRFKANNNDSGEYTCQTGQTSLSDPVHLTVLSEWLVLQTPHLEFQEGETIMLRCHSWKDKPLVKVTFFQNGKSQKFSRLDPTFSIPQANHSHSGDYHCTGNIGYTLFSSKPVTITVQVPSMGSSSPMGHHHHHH

Row | Binder | ratio to native IgG1
1 | B1 | 1.03
2 | B2 | 1.15
3 | B3 | 1.24
4 | B4 | 0.64
5 | B5 | 1.1
6 | B6 | 0.89
7 | B7 | 1.19
8 | B8 | 0.66
9 | B9 | 0.96
10 | B10 | 0.82
11 | B11 | 0.9
12 | B12 | 0.82
13 | B13 | 0.86

biological target: T2, human FcγRIIB α subunit extracellular domain-6His-GST fusion (human, UniProt P31994 43-217); test: ELISA, IgG:IgE hexamers on receptor-GST
T2 construct: not shown: glutathione S-transferase (GST)
T2 sequence: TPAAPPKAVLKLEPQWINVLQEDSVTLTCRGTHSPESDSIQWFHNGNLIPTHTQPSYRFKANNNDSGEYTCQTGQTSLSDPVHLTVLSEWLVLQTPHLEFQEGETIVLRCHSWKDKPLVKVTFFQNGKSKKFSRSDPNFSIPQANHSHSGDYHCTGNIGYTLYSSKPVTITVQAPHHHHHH

Row | Binder | ratio to native IgG1
14 | B1 | 0.89
15 | B2 | 1.09
16 | B3 | 1.3
17 | B4 | 0.34
18 | B5 | 1.06
19 | B6 | 0.73
20 | B7 | 1.14
21 | B8 | 0.37
22 | B9 | 0.93
23 | B10 | 0.83
24 | B11 | 0.81
25 | B12 | 0.73
26 | B13 | 0.79

biological target: T3, human FcγRIIIA-F158 α subunit extracellular domain-6His-GST fusion (human, UniProt P08637 17-208); test: ELISA, IgG:IgE hexamers on receptor-GST
T3 construct: also called FcγRIIIA-Phe158; not shown: glutathione S-transferase (GST)
T3 sequence (P08637 other isoform, or with tags, fused parts or gaps, form in doubt): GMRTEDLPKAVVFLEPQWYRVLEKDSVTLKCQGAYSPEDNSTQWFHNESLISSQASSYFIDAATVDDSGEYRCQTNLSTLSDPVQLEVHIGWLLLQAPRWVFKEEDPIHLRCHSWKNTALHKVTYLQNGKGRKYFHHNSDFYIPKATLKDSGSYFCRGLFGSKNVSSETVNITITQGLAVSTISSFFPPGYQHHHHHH

Row | Binder | ratio to native IgG1
27 | B1 | 1.13
28 | B2 | 0.97
29 | B3 | 1.19
30 | B4 | 0.2
31 | B5 | 0.96
32 | B6 | 0.76
33 | B7 | 1.3
34 | B8 | 0.77
35 | B9 | 1.38
36 | B10 | 0.78
37 | B11 | 0.92
38 | B12 | 0.81
39 | B13 | 0.84

biological target: T4, human FcγRIIIA-Phe158 α subunit extracellular domain-His6-GST fusion (human, UniProt P08637 17-208); test: hexamer ELISA
T4 construct: extracellular domain; also called FcγRIIIA-F158; CD16; not shown: glutathione S transferase (GST)
T4 sequence (P08637 other isoform, or with tags, fused parts or gaps): as the sequence (P08637 other isoform, or with tags, fused parts or gaps, form in doubt) above

Row | Binder | ratio to native IgG1 [ratio]
40 | B14 | 0.06
41 | B15 | 1.19
42 | B16 | 0.03
43 | B17 | 0.95
44 | B18 | 1.34
45 | B19 | 1.05
46 | B20 | 0.89
47 | B21 | 0.09
48 | B22 | 0.98
49 | B23 | 0.06
50 | B24 | 1.07
51 | B25 | 0.22
52 | B26 | 0.36

biological target: T5, human FcγRIIA-Arg131 α subunit extracellular domain-His6-GST fusion (human, UniProt P12318 34-217); test: hexamer ELISA
T5 construct: extracellular domain; also called FcγRIIA-R131; not shown: glutathione S transferase (GST)
T5 sequence: T1 sequence

Row | Binder | ratio to native IgG1 [ratio]
53 | B14 | 0.13
54 | B15 | 1.4
55 | B16 | 0.05
56 | B17 | 1.29
57 | B18 | 1.09
58 | B19 | 1.24
59 | B20 | 0.27
60 | B21 | 0.07
61 | B22 | 1.3
62 | B23 | 0.23
63 | B24 | 1.15
64 | B25 | 1.14
65 | B26 | 0.92

biological target: T6, human FcγRIIB α subunit extracellular domain-His6-GST fusion (human, UniProt P31994 43-217); test: hexamer ELISA
T6 construct: extracellular domain; also called CD32; not shown: glutathione S transferase (GST)
T6 sequence: T2 sequence

Row | Binder | ratio to native IgG1 [ratio]
66 | B14 | 0.14
67 | B15 | 1.45
68 | B16 | 0.1
69 | B17 | 1.34
70 | B18 | 1.2
71 | B19 | 1.36
72 | B20 | 0.17
73 | B21 | 0.13
74 | B22 | 1.59
75 | B23 | 0.22
76 | B24 | 1.3
77 | B25 | 1.29
78 | B26 | 0.83

biological target: T7, human neonatal Fc receptor (FcRn), biotinylated (human, UniProt P55899 24-297; P61769 21-119, biotinylated (biotin-X-NHS)); test: FcRn ELISA, pH 6.0;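 note: Streptavidin-captured FcRn plates, IgG variants titrated 2 h at pH 6.0, peroxidase anti-human IgG read at 450 nm, variant over standard concentration at the standard curve mid-point absorbance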
T7 construct: captured on streptavidin plates
T7 sequence (P55899 24-297 limits assumed, chain 1 of 2): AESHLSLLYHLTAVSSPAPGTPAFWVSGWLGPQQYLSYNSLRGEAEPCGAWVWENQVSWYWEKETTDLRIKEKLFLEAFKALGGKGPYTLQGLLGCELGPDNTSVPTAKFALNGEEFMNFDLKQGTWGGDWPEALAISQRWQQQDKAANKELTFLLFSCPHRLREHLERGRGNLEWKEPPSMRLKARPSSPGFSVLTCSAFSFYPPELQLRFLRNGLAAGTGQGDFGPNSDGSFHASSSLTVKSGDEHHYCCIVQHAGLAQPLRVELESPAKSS
T7 sequence (P61769 21-119 limits assumed, chain 2 of 2): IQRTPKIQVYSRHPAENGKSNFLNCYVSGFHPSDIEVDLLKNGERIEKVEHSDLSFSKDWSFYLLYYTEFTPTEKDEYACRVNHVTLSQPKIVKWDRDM

Row | Binder | ratio to native IgG1 [ratio]
79 | B14 | 0.97
80 | B15 | 1.32
81 | B16 | 0.8
82 | B17 | 1.15
83 | B19 | 1.24
84 | B20 | 0.81
85 | B21 | 1.23
86 | B22 | 0.59
87 | B24 | 0.76
88 | B25 | 0.86

biological target: T8, human FcγRIA α subunit extracellular domain-His6-GST fusion (human, UniProt P12314 16-292); test: FcγRI ELISA and THP-1 cells, averaged
T8 construct: extracellular domain; also called GST-FcγRIA; CD64; not shown: glutathione S transferase (GST)
T8 sequence (P12314 other isoform, or with tags, fused parts or gaps): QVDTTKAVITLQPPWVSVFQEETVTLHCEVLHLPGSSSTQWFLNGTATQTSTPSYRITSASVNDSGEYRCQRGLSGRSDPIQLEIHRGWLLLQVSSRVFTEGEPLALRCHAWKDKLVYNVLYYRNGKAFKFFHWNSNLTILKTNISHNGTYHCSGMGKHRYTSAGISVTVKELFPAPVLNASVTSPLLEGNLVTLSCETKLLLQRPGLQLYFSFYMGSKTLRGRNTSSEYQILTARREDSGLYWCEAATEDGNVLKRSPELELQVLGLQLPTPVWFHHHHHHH

Row | Binder | ratio to native IgG1 [ratio]
89 | B14 | 0.6
90 | B15 | 1.06
91 | B17 | 1.05
92 | B18 | 1.06
93 | B19 | 0.95
94 | B20 | 0.95
95 | B21 | 0.16
96 | B22 | 0.99
97 | B23 | 0.86
98 | B24 | 0.99
99 | B25 | 1.06
100 | B26 | 0.96
